Data: US20210388043A1

Molecular target: CD47 (human) (UniProt Q08722)
Experiment: cell binding (FACS); PC-3 cells
Conditions: Fc fusion

SIRPαD1-Fc
EC50: 0.58 µg/mL
